In publication PMC3192311:
Several values for one entry are separate records, joined by “and”; a condition that tells them apart may be missing. Identical values can stand only once.

Columns and labels:
[1] = target: LMP-1 TM5 D150A synthetic peptide (Epstein-Barr virus); test: AUC
[2] = target: LMP-1 transmembrane helix 1 synthetic peptide (TM1) (Epstein-Barr virus); test: AUC
[3] = target: Latent Membrane Protein 1 D150A, full length (Epstein-Barr virus) (UniProt P03230)
[4] = target: Latent Membrane Protein 1 D150A, full length (Epstein-Barr virus) (UniProt P03230); remark: listed apart in the source

LMP-1 TM5 D150A synthetic peptide
stoichiometry N [1]: 2

LMP-1 transmembrane helix 1 synthetic peptide (TM1)
stoichiometry N [2]: 2 and 4

Latent Membrane Protein 1 D150A, full length (from UniProt P03230 1-386) (natural protein)
p65 nuclear translocation in HEp2 cells, % of exp + cells with nuc p65 (TR > 1) [3]: 38%
NFκB luciferase reporter assay in HEp2 cells, luciferase against empty vector [4]: 1.2 times
